Source: PMC9769108, “Tuning dynamic DNA- and peptide-driven self-assembly in DNA–peptide conjugates†” (Chemical Science, 2022)
Where no end group is shown, it is not given here.

Target: the molecule itself
Experiment: dynamic light scattering + atomic force microscopy; TAMg buffer, room temperature, aged 0 to 28 days; total peptide 10 μM; CD alongside

B1: ILVAGK, β-turn-forming hexapeptide (parent peptide) (peptide)
peptide: ILVAGK
modifications: not fully specified (N-terminus, C-terminus)
notes: The form used for conjugation is N3-ILVAGK-NH2; also called pure ILVAGK
binding result: binds
